Results taken from patent US20210380977, “MYOCARDIAL ENHANCER RNA AND METHODS OF USE” (THE TRUSTEES OF INDIANA UNIVERSITY, published 2021).

T1: CTCF (UniProt P49711 P49711:1-727)
T1 sequence: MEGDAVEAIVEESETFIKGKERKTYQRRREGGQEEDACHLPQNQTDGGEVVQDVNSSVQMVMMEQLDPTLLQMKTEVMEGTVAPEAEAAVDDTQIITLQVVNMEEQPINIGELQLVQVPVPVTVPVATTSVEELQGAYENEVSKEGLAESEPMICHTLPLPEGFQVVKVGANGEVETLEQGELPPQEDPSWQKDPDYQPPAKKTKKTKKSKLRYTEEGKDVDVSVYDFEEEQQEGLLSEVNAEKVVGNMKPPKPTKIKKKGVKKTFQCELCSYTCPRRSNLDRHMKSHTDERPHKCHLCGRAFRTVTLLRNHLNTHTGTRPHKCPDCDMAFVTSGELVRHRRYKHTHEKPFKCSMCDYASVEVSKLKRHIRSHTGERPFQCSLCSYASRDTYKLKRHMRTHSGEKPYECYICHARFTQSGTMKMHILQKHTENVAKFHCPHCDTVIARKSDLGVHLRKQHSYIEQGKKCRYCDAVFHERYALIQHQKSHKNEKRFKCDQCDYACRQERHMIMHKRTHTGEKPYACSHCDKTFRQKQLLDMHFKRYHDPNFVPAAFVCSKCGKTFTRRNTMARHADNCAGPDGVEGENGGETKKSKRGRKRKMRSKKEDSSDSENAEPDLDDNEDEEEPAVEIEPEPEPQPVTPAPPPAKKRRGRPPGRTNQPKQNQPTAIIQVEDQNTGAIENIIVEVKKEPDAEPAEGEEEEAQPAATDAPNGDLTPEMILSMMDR


Assays:
[1] = molecular target: T1, CTCF; assay: EMSA; 200 ng CTCF, 10 mM HEPES pH 7.3, 10 mM NaCl, 1 mM MgCl2, 5 ug tRNA, RT; conditions: tags: Abnova H00010664-P01; label: 5' biotin on the reverse complementary strand
Experimental: (§1) All these biotin-labelled probes were incubated with 200 ng CTCF recombinant proteins (H00010664-P01, Abnova) in 20 μl 1× binding buffer (10 mM HEPES-KOH, pH 7.3, 10 mM NaCl, 1 mM MgCl₂, 1 mM DTT) with 5 μg tRNA carrier at room temperature for 30 min. The reactions were then loaded onto 6% Novex TBE gels (EC6265BOX, Thermo Fisher Scientific) and transferred to Bright Star-Plus positive charged membrane (AM10110, Thermo Fisher Scientific). Biotin-labeled probes were detected by Chemiluminescent Nucleic Acid Detection Module (89880, Thermo Fisher Scientific) using Odyssey Imaging System (LI-COR).
(§2) We next asked whether Brg1 or its associated factor could bind to Uhrt-eDNA hybrid. We first investigated the role in eDNA looping of CCCTC-binding factor (CTCF), a regulator protein essential for chromatin looping and three-dimensional structure formation. CTCF contains 11 highly conserved zinc finger domains, capable of binding to specific double-stranded DNA sequence to cause chromatin looping. We found a CTCF consensus binding motif (AGGGGGTGG; SEQ ID NO: 43) on eDNA near the conserved MEF2A and GATA4 sites. ChIP analysis of heart tissues verified CTCF was enriched on eDNA region in E13.5 hearts, whereas its occupancy on eDNA dropped by 42% in normal adult hearts, but was increased by 81% and restored to fetal levels by TAC, while CTCF protein levels remained unchanged. […]

[2] = molecular target: T1, CTCF; assay: EMSA; mutation disrupted CTCF binding; conditions: tags: Abnova H00010664-P01; label: 5' biotin
Experimental: as §1, §2

Row | Binder | binding result [1] | binding result [2]
1 | eDNA CTCF site dsDNA probe (dsDNA) DNA 1: GGTCAGCCACACAACAGAGGGGGTGGCACAGCTCTTGGGA DNA 2: TCCCAAGAGCTGTGCCACCCCCTCTGTTGTGTGGCTGACC | binds | 
2 | mutant CTCF site dsDNA probe (dsDNA) DNA 1: GGTCAGCCACACAACAGAAAAAATGGCACAGCTCTTGGGA DNA 2: TCCCAAGAGCTGTGCCATTTTTTCTGTTGTGTGGCTGACC |  | no binding
